Source: US20020028202A1 (Biogen, published 2002)
Positions count from the first letter of the chain named.

What was measured:
Assay in all cases: staining of transfected COS-7 cells, FACS
[1] = target: T1, human gc chain mutant, PW replaced by Ala (interdomain residues), myc-tagged, on COS-7 cells (human, UniProt P31785 23-369)
T1 construct: whole, on cells; not shown: 9 amino acid myc tag at the 5' end of the construct
T1 sequence (looked up): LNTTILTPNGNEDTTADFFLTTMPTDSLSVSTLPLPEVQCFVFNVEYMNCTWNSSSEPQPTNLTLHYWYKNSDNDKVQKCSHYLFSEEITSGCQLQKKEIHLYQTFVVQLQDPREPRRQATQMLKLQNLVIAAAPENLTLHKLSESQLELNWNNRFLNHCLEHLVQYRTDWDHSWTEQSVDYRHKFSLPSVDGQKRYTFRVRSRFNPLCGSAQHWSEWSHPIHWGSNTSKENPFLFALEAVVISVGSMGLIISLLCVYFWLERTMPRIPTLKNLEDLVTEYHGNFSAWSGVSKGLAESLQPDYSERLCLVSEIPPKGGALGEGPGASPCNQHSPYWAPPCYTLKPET
Method: (§1) COS-7 cells are transiently transfected with 20 ug of DNA encoding the gc chain mutant or wildtype cDNA and 180 ug of herring sperm carrier DNA. After 2-3 days, COS-7 cells are harvested and analyzed by immnunofluorescent staining with anti-gc chain mAbs. MAbs are used at 10 ug/ml in PBS-1% BSA-0.02% sodium azide and allowed 30 minutes to bind to 1×10⁶ COS-7 cells. Cells are then washed 2 times, and bound mAb is detected with PE-conjugated goat anti-mouse Fc specific antibodies. The % of positive cells staining with the anti-gc chain mAb over an irrelevant control Ig is determined for a given gc chain mutant and for wildtype gc chain. […] Data are adjusted for any differences in level of expression of a mutant vs. wildtype constructs by measuring the binding of a mAb specific for a 9 amino acid myc tag engineered at the 5′ end of each gc chain construct. […] Values reduced from 100% indicate amino acid mutations which affect mAb binding.
(§2) The value “100%” indicates no effect of mutation and lower percentages indicate greater losses in binding as a result of the sequence change.

[2] = target: T2, human gc chain mutant, IHL replaced by Ala (Domain 1 Loop EF), myc-tagged, on COS-7 cells (human, UniProt P31785 23-369)
T2 construct: whole, on cells; not shown: 9 amino acid myc tag at the 5' end of the construct
T2 sequence (looked up): T1 sequence (looked up) with I100A, H101A, L102A, A132P, A133W
Method: as §1, §2

[3] = target: T3, human gc chain mutant, FNP replaced by Ala (Domain 2 Loop FQ), myc-tagged, on COS-7 cells (human, UniProt P31785 23-369)
T3 construct: whole, on cells; not shown: 9 amino acid myc tag at the 5' end of the construct
T3 sequence (looked up): T1 sequence (looked up) with A132P, A133W, F205A, N206A, P207A
Method: as §1, §2

[4] = target: T4, human gc chain mutant, LQN replaced by Ala (interdomain residues), myc-tagged, on COS-7 cells (human, UniProt P31785 23-369)
T4 construct: whole, on cells; not shown: 9 amino acid myc tag at the 5' end of the construct
T4 sequence (looked up): T1 sequence (looked up) with L126A, Q127A, N128A, A132P, A133W
Method: as §1, §2

[5] = target: T5, human gc chain mutant, SDN replaced by Ala (Domain 1 Loop CC), myc-tagged, on COS-7 cells (human, UniProt P31785 23-369)
T5 construct: whole, on cells; not shown: 9 amino acid myc tag at the 5' end of the construct
T5 sequence (looked up): T1 sequence (looked up) with S72A, D73A, N74A, A132P, A133W
Method: as §1, §2

[6] = target: T6, human gc chain mutant, RFL replaced by Ala (Domain 2 Loop BC), myc-tagged, on COS-7 cells (human, UniProt P31785 23-369)
T6 construct: whole, on cells; not shown: 9 amino acid myc tag at the 5' end of the construct
T6 sequence (looked up): T1 sequence (looked up) with A132P, A133W, R155A, F156A, L157A
Method: as §1, §2

B1: CP.B8 monoclonal antibody (murine anti-human gc chain, hybridoma ATCC HB-12107) (antibody, V domains shown)
VH: LQESGPGLVAPSQSLSITCTVSGFSLTSYGVHWVRQPPGKGLEWLGVIWAGGSTNYNSALMSRLNINRDNSKSQIFLKMNSLQTDDTAIYYCAREGSTVDSMDYWGQGTTVT
VL: DIVMTQSHKFMSTSVGDSITITCKASQDVTTAVAWYQQKPGQSPKLLIYWASTRHTGVPDRFTGSGSGTDYTLTISSVQAEDLALYYCQQHYITPWTFGGGTKLEI
notes: Used unconjugated and biotin-conjugated; also called CP.B8 mAb; mAb CP.B8
[1]
  % binding to mutant gc chain/wildtype gc chain: 73%
[2]
  % binding to mutant gc chain/wildtype gc chain: 0%
[3]
  % binding to mutant gc chain/wildtype gc chain: 28%
[4]
  % binding to mutant gc chain/wildtype gc chain: 4%
[5]
  % binding to mutant gc chain/wildtype gc chain: 68%
[6]
  % binding to mutant gc chain/wildtype gc chain: 89%
